Key:
[1] = target: T1, KRS (Homo sapiens, UniProt Q15046); test: Western blotting and immunoprecipitation of converted IgGs; format: binding; details: HCT116 cell lysate
T1 construct: endogenous in cells; host or cells: HCT116

[2] = system: rat KRS N-terminal peptide fragments (rF1-rF5); test: SPR (Biacore T200) of immobilized N3 IgG against rat KRS N-terminal peptide fragments; format: binding
Method: In the same manner as the experimental method described in Example 4-1 above, N3 IgG antibody was immobilized on the chip by using an amine coupling kit (GE Healthcare). Then, the peptides shown in Table 4 above dissolved in PBS solution at corresponding concentrations were allowed to flow for 60 s, and PBS was allowed to flow for 5 min. Then, the binding ability was analyzed by Biacore T200 Evaluation software v2.0 (GE Healthcare).

[3] = system: KRS level in the monocyte/macrophage cell membrane (RAW 264.7 cells); test: Western blotting of KRS in membrane and cytosol fractions after LN421 treatment; format: cell-based; details: 100 nM, 24 h, laminin 421 1 μg/ml
Method: RAW 264.7 cells (2×10^6 cell) were incubated for 18 hr, treated with 1 μg/ml of each laminin subtype in serum-free DMEM, and then harvested at 0 h, 12 h, and 24 h. RAW 264.7 cell protein was separated into cytosol and membrane fractions by using the ProteoExtract Subcellular Proteome Extraction Kit (Calbiotech, cat #539790). The obtained protein was electrophoresed, transferred onto PVDF membrane (Milipore), and blocked with 3% skim milk. Thereafter, KRS polyclonal antibody (rabbit, Neomics, Co. Ltd. #NMS-01-0005) was added, followed by incubation for 1 h. After the unbound antibodies were washed out, anti-rabbit secondary antibodies (ThermoFisher Scientific, #31460) were added, followed by incubation. After incubation with the secondary antibodies, film sensitization was carried out using ECL reagent as a substrate in a dark room. The sensitized bands were compared with standard molecule markers to identify bands corresponding to KRS sizes. Na+/K+ ATPase (Abcam) and tubulin (Sigma) antibody were used for plasma membrane and cytosol marker identification, respectively. RAW 264.7 cells were treated with laminin 421 (1 μg/ml) and antibody (100 nM), incubated for 24 h, and harvested. […]

T1 sequence (Q15046 whole entry): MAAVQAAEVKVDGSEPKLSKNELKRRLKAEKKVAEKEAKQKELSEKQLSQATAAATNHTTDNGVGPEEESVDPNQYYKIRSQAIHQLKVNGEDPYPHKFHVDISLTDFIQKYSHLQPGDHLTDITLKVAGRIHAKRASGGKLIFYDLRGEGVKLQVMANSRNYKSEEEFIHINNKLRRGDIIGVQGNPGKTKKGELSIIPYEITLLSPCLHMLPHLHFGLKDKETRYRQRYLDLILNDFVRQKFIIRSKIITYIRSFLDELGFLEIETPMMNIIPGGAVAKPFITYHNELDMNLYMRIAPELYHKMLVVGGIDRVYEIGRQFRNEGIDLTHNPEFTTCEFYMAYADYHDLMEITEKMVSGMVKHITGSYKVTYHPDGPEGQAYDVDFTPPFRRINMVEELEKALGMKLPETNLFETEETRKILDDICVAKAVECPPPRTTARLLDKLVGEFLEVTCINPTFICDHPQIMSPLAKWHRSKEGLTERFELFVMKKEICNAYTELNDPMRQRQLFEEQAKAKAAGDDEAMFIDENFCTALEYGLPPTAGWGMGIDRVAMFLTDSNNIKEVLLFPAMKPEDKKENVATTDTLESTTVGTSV

KRS binding ability (western blotting and immunoprecipitation) [1]: bound to KRS
B1: N3 IgG: IgG converted from N3 scFv; VH SEQ ID NO: 49, VL SEQ ID NO: 51; binds KRS N-terminal region (antibody, V domains shown)
VH: EVQLLESGGGLVQPGGSLRLSCAASGFTFSSYDMSWVRQAPGKGLEWVSAISYDNGNTYYADSVKGRFTISRDNSKNTLYLQMNSLRAEDTAVYYSARMALDFDYWGQGTLVTVSS
VL: QSVLTQPPSASGTPGQRVTISCTGSSSNIGSNYVTWYQQLPGTAPKLLIYDNSNRPSGVPDRFSGSKSGTSASLAISGLRSEDEADYYCASWDDSLSAYVFGGGTKLTVL
relative binding ability, epitope F3 vs F1 (rat) [2]: stronger binding ability to epitope F3 than F1
binding to rat KRS N-terminal epitopes F1-F5 (SPR) ([2]; F2 and F4 data not shown): bound to epitopes F1, F2, F3, and F4 of human (h), mouse (m), and rat (r) but not epitope F5
KRS level in the cell membrane [3]: effectively reduced
